From the supplement of paper PMC9170038

System: MS2 coat protein
Assay: apparent KD of MS2 coat protein; designed switch direction (-1 OFF switch, 1 ON switch): -1; higher = weaker reporter binding
Procedure, shortened: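 Apparent KD, taken as the median over clusters for each design, was obtained by curve-fitting normalised cluster fluorescence. Designed RNA switches had been transcribed on Illumina chips by stalled E. coli RNA polymerase and titrated with SNAP-549-labelled MS2 coat protein, doubling from 0.7 or 1.5 nM to 3 µM.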

[1] = Eterna round: R95, input ligand: microRNA oligo, concentration not stated
[2] = Eterna round: R95, input ligand: FMN 200 uM
[3] = Eterna round: R95, input ligand: none
[4] = input ligand: microRNA oligo, concentration not stated

Sequence: UGAUCUUUUGUUAGGAUAUGCUGGGUUUUUUCUCAGCAGAAGGGACAUGAGGAUCACCCAUGUUCUCUCUUUUU [Magic-08] (puzzle: Brourd's mod of Exclusion 4)
- apparent KD of MS2 coat protein [1]: 9.72 nM

Sequence: UGAUGACAUGAGGAUCACCCAUGUCAGGAUAUUGAAGUUGAAGUGAAAGCUUCGGCUUCGAGAAGGGACUGUCG [-29.3, -26.3 kcal, A 28% sequence 3] (Eterna round: R97, puzzle: Exclusion 1)
- apparent KD of MS2 coat protein (input ligand: FMN 200 uM): 29.5 nM
- apparent KD of MS2 coat protein (input ligand: none): 25 nM

Sequence: UGAUUGUUUACCAGGUUAUACAUGAGGAUCACCCAUGUAGAUCCUACGUGCGCGUUGUUCCGCUCGUCUUAUUGCCA [Sensor-V1 #80] (Eterna round: R97, puzzle: Sensor, turn-off variant 1)
- apparent KD of MS2 coat protein (input ligand: FMN 200 uM): 22.6 nM
- apparent KD of MS2 coat protein (input ligand: none): 24.8 nM

Sequence: UGCAGACGAGGAUAUAGAUUUAAGUACAUGAGGAUCACCCAUGUACAUAUGUAUUUAGAUUUAGAAGGCGUCUGCU [E5/16-A4] (Eterna round: R97, puzzle: Exclusion 5)
- apparent KD of MS2 coat protein (input ligand: FMN 200 uM): 28.5 nM
- apparent KD of MS2 coat protein (input ligand: none): 29.8 nM

Sequence: UGCCGUAGAGGAUAUACAUUGAAUAAGAUUCAUGUAGAACUACAUGAGGAUCACCCAUGUAGAAGGCUAUGGCU [JL-ex2-4.38 Eli mod] (Eterna round: R97, puzzle: Exclusion 2)
- apparent KD of MS2 coat protein (input ligand: FMN 200 uM): 29.5 nM
- apparent KD of MS2 coat protein (input ligand: none): 16.9 nM

Sequence: UGCGGGCUUUUGAGACCUCACAUGAGGAUCACCCAUGUGCUUGUCUUGUGGGUCGGUCGGUCGUUGGCUGGCUGGCU [-29.6, -52.1 kcal, A 10%] (Eterna round: R97, puzzle: Sensor, turn-off variant 1)
- apparent KD of MS2 coat protein (input ligand: FMN 200 uM): 18 nM
- apparent KD of MS2 coat protein (input ligand: none): 17.8 nM

Sequence: UGCGGGCUUUUGAGACCUCACAUGAGGAUCACCCAUGUGCUUGUCUUGUGGGUGGGUAGGUCGUUGGCUGACUCACG [Sensor-V1 #98] (Eterna round: R97, puzzle: Sensor, turn-off variant 1)
- apparent KD of MS2 coat protein (input ligand: FMN 200 uM): 68.2 nM
- apparent KD of MS2 coat protein (input ligand: none): 68.9 nM

Sequence: UGGAGAUAUAAGGAUAUAUUAGGAGGAGAGGAAAUAGAAGGUGUAACAUGAGGAUCACCCAUGUACCUCAUGUA [Default title] (Eterna round: R97, puzzle: Exclusion 6)
- apparent KD of MS2 coat protein (input ligand: FMN 200 uM): 693 nM
- apparent KD of MS2 coat protein (input ligand: none): 985 nM

Sequence: UGGGUCCAAGGAUAUACAUGAGGAUCACCCAUGUGAGAUUCGAUGCUGUGCCAAUUGUGUAGAAGGUGGCCACC [Eternabot (L2) Solution 32] (Eterna round: R97, puzzle: Exclusion 3)
- apparent KD of MS2 coat protein (input ligand: FMN 200 uM): 45.3 nM
- apparent KD of MS2 coat protein (input ligand: none): 44.1 nM

Sequence: UGGUAACAUGAGGAUCACCCAUGUCAGGAUAUCAUGAAGAGGAGAGGAGAGGAGAGGAUGAGAAGGGACUAUAU [Excluse me! 13 - Jieux - Exclusion 1] (puzzle: Exclusion 1)
- apparent KD of MS2 coat protein [2]: 39 nM
- apparent KD of MS2 coat protein [1]: 30.4 nM
- apparent KD of MS2 coat protein [3]: 38.4 nM

Sequence: UGGUCACAUGAGGAUCACCCAUGUCAGGAUAUCGUCACUGGAGCUGCGGCUCCAGUGACGAGAAGGGACAUAAU [E1/6-A3] (Eterna round: R97, puzzle: Exclusion 1)
- apparent KD of MS2 coat protein (input ligand: FMN 200 uM): 162 nM
- apparent KD of MS2 coat protein (input ligand: none): 253 nM

Sequence: UGUAGUUCAGGAUAUGAUGUAUAAUACAUGAGGAUCACCCAUGUAGAUCCUGAAUUUACAUCAGAAGGGAAUAUUU [JL-ex5-4.58 Brourd mod] (Eterna round: R97, puzzle: Exclusion 5)
- apparent KD of MS2 coat protein (input ligand: FMN 200 uM): 20.4 nM
- apparent KD of MS2 coat protein (input ligand: none): 15.4 nM

Sequence: UGUAUUAGGUCAGGAUAUACAUGAGGAUCACCCAUGUACAUGGAGCGAGUACAGUAUCAUGCAAGGUAGAAGGGACAGUCGACG [success! :D] (Eterna round: R96, puzzle: Exclusion NG 2)
- apparent KD of MS2 coat protein (input ligand: FMN 200 uM): 21.6 nM
- apparent KD of MS2 coat protein [4]: 15.7 nM
- apparent KD of MS2 coat protein (input ligand: none): 24.3 nM

Sequence: UGUCUACAUGAGGAUCACCCAUGUCAGGAUAUGCUCGAUAUAUGGAAACAUAUAUCGAGCAGAAGGGACUAGCG [Jieuxxlusion 5 - Jieux - Exclusion 1] (Eterna round: R97, puzzle: Exclusion 1)
- apparent KD of MS2 coat protein (input ligand: FMN 200 uM): 53.5 nM
- apparent KD of MS2 coat protein (input ligand: none): 28.4 nM

Sequence: UGUGGAGCUUAGGAUAUUGCUCUACCAAGAGGGCGAGAAGGGAGCACAUGAGGAUCACCCAUGUGGUCCGGAAC [Edoroner] (puzzle: Exclusion 6)
- apparent KD of MS2 coat protein [2]: 26 nM
- apparent KD of MS2 coat protein [1]: 14.7 nM
- apparent KD of MS2 coat protein [3]: 14.6 nM

Sequence: UGUGUGAGACAGGAUAUGCCGGAUGUAUUACUGGUAGAAGGGUCUACAUGAGGAUCACCCAUGUGGCCGGCCGG [Ex6 #83] (Eterna round: R97, puzzle: Exclusion 6)
- apparent KD of MS2 coat protein (input ligand: FMN 200 uM): 31.3 nM
- apparent KD of MS2 coat protein (input ligand: none): 21.1 nM

Sequence: UGUGUGUCAGGAUAUAGUUCGAGUUCGGAAAUGAGCUUGAGCUAGAAGGGACAUGAGGAUCACCCAUGUGCACG [-26.3, -25.3 kcal, A 27%, 1-(ca)1] (Eterna round: R97, puzzle: Exclusion 4)
- apparent KD of MS2 coat protein (input ligand: FMN 200 uM): 148 nM
- apparent KD of MS2 coat protein (input ligand: none): 83.6 nM

Sequence: UGUUCGGUAGGAUAUACAUCGCUGAAGUGGCGGUGACUUCAACAUGAGGAUCACCCAUGUAGAAGGGCCGGCUC [EX2 C.4] (Eterna round: R97, puzzle: Exclusion 2)
- apparent KD of MS2 coat protein (input ligand: FMN 200 uM): 17.3 nM
- apparent KD of MS2 coat protein (input ligand: none): 16.5 nM

Sequence: UGUUGUCGCGCAGGAUAUGCAUGAGGAUCACCCAUGCAAUUAGAGUUAACAUGAGGAUCACCCAUGUAGAAGGGCGGGACAACU [pwkr exNG2 2xF5 1xFMN.5] (Eterna round: R96, puzzle: Exclusion NG 2)
- apparent KD of MS2 coat protein (input ligand: FMN 200 uM): 65.1 nM
- apparent KD of MS2 coat protein [4]: 27.6 nM
- apparent KD of MS2 coat protein (input ligand: none): 54.2 nM

Sequence: UGUUGUCGCGUAGGAUAUGGCCAACAGGCCCUAGGAUAUCGGAAACGAGAAGGAGCGCCAACAGGCGAGAAGGACGGGACAACU [pwkr exNG2 2xF7 2xFMN.20] (Eterna round: R96, puzzle: Exclusion NG 2)
- apparent KD of MS2 coat protein (input ligand: FMN 200 uM): 33 nM
- apparent KD of MS2 coat protein [4]: 52.7 nM
- apparent KD of MS2 coat protein (input ligand: none): 10.7 nM

Sequence: UGUUGUUACGCAGGAUAUGGCCAACAGGCCCUAGGAUAUCCGAAAGGAGAAGGAGCGCCAACAGGCGAGAAGGGCGGGUUAACA [pwkr exNG2 2xF7 2xFMN.14] (Eterna round: R96, puzzle: Exclusion NG 2)
- apparent KD of MS2 coat protein (input ligand: FMN 200 uM): 201 nM
- apparent KD of MS2 coat protein [4]: 55.7 nM
- apparent KD of MS2 coat protein (input ligand: none): 140 nM

Sequence: UGUUGUUACGCAGGAUAUGUAUGAGGAUCACCCAUAAGAGUAUAUUUACCAUGAGGAUCACCCAUGUAGAAGGGCGGGUUAACA [pwkr exNG2 2xF5 1xFMN.10] (Eterna round: R96, puzzle: Exclusion NG 2)
- apparent KD of MS2 coat protein (input ligand: FMN 200 uM): 224 nM
- apparent KD of MS2 coat protein [4]: 109 nM
- apparent KD of MS2 coat protein (input ligand: none): 144 nM

Sequence: UGUUUACAUGAGGAUCACCCAUGUCAGGAUAUGAUCGAUAUAUGGAAACAUAUAUCGAUCAGAAGGGACUAGUG [Jieuxxlusion 2 - Jieux - Exclusion 1] (Eterna round: R97, puzzle: Exclusion 1)
- apparent KD of MS2 coat protein (input ligand: FMN 200 uM): 88.2 nM
- apparent KD of MS2 coat protein (input ligand: none): 82.6 nM

Sequence: UUAAAUCAUGUAGGAUAUGCGUGGCGAAGCUAUGCAGAAGGACAUGAGGAUCACCCAUGUGCUUCCGUCUGCGUACAGACGGUA [JL ENG1 1.14] (Eterna round: R96, puzzle: Exclusion NG 1)
- apparent KD of MS2 coat protein (input ligand: FMN 200 uM): 258 nM
- apparent KD of MS2 coat protein [4]: 79.2 nM
- apparent KD of MS2 coat protein (input ligand: none): 91.2 nM

Sequence: UUAAAUCAUGUAGGAUAUGCGUGGCGAAGCUAUGCAGAAGGACAUGAGGAUCACCCAUGUUCUGCGGUCUGCGUACAGAUCGCU [JL ENG1 1.04] (Eterna round: R96, puzzle: Exclusion NG 1)
- apparent KD of MS2 coat protein [4]: 14.9 nM

Sequence: UUAACGUCAGGAUAUGCAUAAUAUAUUAUAUUAUAAUAUAUACAUGAGGAUCACCCAUGUAGAAGGGACAUUAU [LRO-Excl2-01-Fireball XL5] (Eterna round: R97, puzzle: Exclusion 2)
- apparent KD of MS2 coat protein (input ligand: FMN 200 uM): 42.7 nM
- apparent KD of MS2 coat protein (input ligand: none): 29.8 nM

Sequence: UUAAUUAAUAAUUAAGAUCAUUACAUGAGGAUCACCCAUGUCGAGGAUAUCAGCUCGUGUAGAGCUGAGAAGGCGACAAAUUAU [ExNG3/13-B3] (Eterna round: R96, puzzle: Exclusion NG 3)
- apparent KD of MS2 coat protein (input ligand: FMN 200 uM): 586 nM
- apparent KD of MS2 coat protein [4]: 268 nM
- apparent KD of MS2 coat protein (input ligand: none): 633 nM

Sequence: UUAGAAUUGUUAGGAUAUUAAUUAUUGUUUAGUAUGAUCUACAUGAGGAUCACCCAUGUUAAAUAUAAGAAGGAACGUUAGAUU [JR_ExcNG2_Sub095] (Eterna round: R96, puzzle: Exclusion NG 2)
- apparent KD of MS2 coat protein (input ligand: FMN 200 uM): 43.7 nM
- apparent KD of MS2 coat protein [4]: 35.6 nM
- apparent KD of MS2 coat protein (input ligand: none): 51.3 nM

Sequence: UUAGCUCAAGUCAGGAUAUUAGAGGCUUGCCUAAAUAAGAAGGGACAUGAGGAUCACCCAUGUCUAUGCAUGUA [BmEX4 A.16] (Eterna round: R97, puzzle: Brourd's mod of Exclusion 4)
- apparent KD of MS2 coat protein (input ligand: FMN 200 uM): 21.5 nM
- apparent KD of MS2 coat protein (input ligand: none): 15.9 nM

Sequence: UUAGGAUCAGGAUAUGAUGUUUUUUACAUGAGGAUCACCCAUGUUGAUCCUGAUUCAACAUCAGAAGGGAUAAUUU [JR_Ex5_Sub081] (Eterna round: R97, puzzle: Exclusion 5)
- apparent KD of MS2 coat protein (input ligand: FMN 200 uM): 85.2 nM
- apparent KD of MS2 coat protein (input ligand: none): 21.4 nM

Sequence: UUAGUGUUAGGAUAUCCGGCUCCAAGGCACCAAAACCGGGCGGAGAAGGAACAUGAGGAUCACCCAUGUGACCA [Eternabot (Original) Solution 31] (Eterna round: R97, puzzle: Exclusion 4)
- apparent KD of MS2 coat protein (input ligand: FMN 200 uM): 53.7 nM
- apparent KD of MS2 coat protein (input ligand: none): 49.1 nM

Sequence: UUAUAAAGUGUGAGGAUAUGCUGGUCGAUAGAUCAGCAGAAGGCACAUGAGGAUCACCCAUGUAAUAUAUUUUA [Mat - Exclusion 4 - JL Mod - D45] (puzzle: Brourd's mod of Exclusion 4)
- apparent KD of MS2 coat protein [1]: 50 nM

Sequence: UUAUACGUUGAGGAUAUGCGACUUAGUAUAGUUGUAGAAGGCGAUACAUGAGGAUCACCCAUGUUUAUGGGCAU [LRO-Ex6-09] (puzzle: Exclusion 6)
- apparent KD of MS2 coat protein [1]: 227 nM
